Measurements taken from paper PMC5134900 (Cell, 2016).
Like-named read-outs stand apart in the source and are kept apart here.

T1: SIRT3-FLAG (human, UniProt Q9NTG7 118-399)
T1 sequence (looked up): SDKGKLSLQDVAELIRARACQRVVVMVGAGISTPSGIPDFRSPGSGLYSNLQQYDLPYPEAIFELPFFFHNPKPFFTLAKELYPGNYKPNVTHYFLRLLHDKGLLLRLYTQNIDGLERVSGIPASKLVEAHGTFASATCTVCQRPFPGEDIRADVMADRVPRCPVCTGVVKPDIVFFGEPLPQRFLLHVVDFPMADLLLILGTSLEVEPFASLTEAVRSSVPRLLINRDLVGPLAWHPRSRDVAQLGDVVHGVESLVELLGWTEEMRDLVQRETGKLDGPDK


What was measured:
SIRT3-FLAG [1] = target: T1, SIRT3-FLAG; assay: BLI
SIRT3-FLAG [2] = target: T1, SIRT3-FLAG; assay: BLI; remark: listed apart in the source
SIRT3-HA (HeLa) (human) = assay: proximity ligation

Kd (SIRT3-FLAG [1]) [nM] | Kd (SIRT3-FLAG [2]) [nM] | PLA signals per cell (signals per cell) (SIRT3-HA (HeLa) (human)) | percent of cells with PLA signal (SIRT3-HA (HeLa) (human)) [%] | Binder
400 | 100 |  |  | ATP5O (recombinant) (domain or fragment, human, UniProt P48047 46-213, looked up) YSAASKQNKLEQVEKELLRVAQILKEPKVAASVLNPYVKRSIKVKSLNDITAKERFSPLTTNLINLLAENGRLSNTQGVVSAFSTMMSVHRGEVPCTVTSASPLEEATLSELKTVLKSFLSQGQVLKLEAKTDPSILGGMIVRIGEKYVDMSVKTKIQKLGRAMREIV
 |  | < 10 | 40 | ATP5O (endogenous, HeLa) (natural protein) FAKLVRPPVQVYGIEGRYATALYSAASKQNKLEQVEKELLRVAQILKEPKVAASVLNPYVKRSIKVKSLNDITAKERFSPLTTNLINLLAENGRLSNTQGVVSAFSTMMSVHRGEVPCTVTSASPLEEATLSELKTVLKSFLSQGQVLKLEAKTDPSILGGMIVRIGEKYVDMSVKTKIQKLGRAMREIV
